Results: the supplement of paper PMC10567573

B1: TFE3 (parent)
chain: FPSDHLGDLGDPFHLGLEDILMEE

Variants of: B1
Assay: protein stability index of a GFP-peptide fusion (GPS, HEK-293T) (PSI 1-6); higher = more stable
Settings: c terminus: a fixed tail appended
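Further: lentivirally expressed fusions sorted by FACS into six bins by GFP to DsRed ratio, PSI derived from sequencing read proportions per bin multiplied by bin number.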

For FPSVHLGDLGDPFHLGLEDILMEE [D4V], which protein stability index is on record?
The protein stability index was 2.59.

Which protein stability index does the source give for FPSWHLGDLGDPFHLGLEDILMEE [D4W] here?
The protein stability index was 1.7.

For FPSYHLGDLGDPFHLGLEDILMEE [D4Y], which protein stability index is on record?
Its protein stability index is 2.75.

With FPSDALGDLGDPFHLGLEDILMEE [H5A] as the variant, how does the protein stability index read?
The protein stability index was 4.06.

With FPSDCLGDLGDPFHLGLEDILMEE [H5C] as the variant, how does the protein stability index read?
The protein stability index was 3.73.

Which protein stability index does the source give for FPSDDLGDLGDPFHLGLEDILMEE [H5D] here?
The protein stability index was 4.42.

For FPSDELGDLGDPFHLGLEDILMEE [H5E], which protein stability index is on record?
The protein stability index was 4.15.

For FPSDFLGDLGDPFHLGLEDILMEE [H5F], which protein stability index is on record?
Its protein stability index is 3.28.

For FPSDGLGDLGDPFHLGLEDILMEE [H5G], which protein stability index is on record?
The protein stability index was 3.36.

For FPSDILGDLGDPFHLGLEDILMEE [H5I], which protein stability index is on record?
Its protein stability index is 3.08.

Which protein stability index does the source give for FPSDKLGDLGDPFHLGLEDILMEE [H5K] here?
Its protein stability index is 2.83.

Which protein stability index does the source give for FPSDLLGDLGDPFHLGLEDILMEE [H5L] here?
The protein stability index was 3.3.

For FPSDMLGDLGDPFHLGLEDILMEE [H5M], which protein stability index is on record?
The protein stability index was 3.33.

With FPSDNLGDLGDPFHLGLEDILMEE [H5N] as the variant, how does the protein stability index read?
The protein stability index was 3.87.

Which protein stability index does the source give for FPSDPLGDLGDPFHLGLEDILMEE [H5P] here?
Its protein stability index is 3.68.

For FPSDQLGDLGDPFHLGLEDILMEE [H5Q], which protein stability index is on record?
Its protein stability index is 3.85.

With FPSDRLGDLGDPFHLGLEDILMEE [H5R] as the variant, how does the protein stability index read?
Its protein stability index is 3.52.

Which protein stability index does the source give for FPSDSLGDLGDPFHLGLEDILMEE [H5S] here?
The protein stability index was 3.81.

Which protein stability index does the source give for FPSDTLGDLGDPFHLGLEDILMEE [H5T] here?
The protein stability index was 3.88.

Which protein stability index does the source give for FPSDVLGDLGDPFHLGLEDILMEE [H5V] here?
The protein stability index was 3.87.

For FPSDWLGDLGDPFHLGLEDILMEE [H5W], which protein stability index is on record?
The protein stability index was 1.35.

With FPSDYLGDLGDPFHLGLEDILMEE [H5Y] as the variant, how does the protein stability index read?
The protein stability index was 3.18.

Which protein stability index does the source give for FPSDHAGDLGDPFHLGLEDILMEE [L6A] here?
Its protein stability index is 3.69.

For FPSDHCGDLGDPFHLGLEDILMEE [L6C], which protein stability index is on record?
Its protein stability index is 3.42.

For FPSDHDGDLGDPFHLGLEDILMEE [L6D], which protein stability index is on record?
The protein stability index was 4.09.

With FPSDHEGDLGDPFHLGLEDILMEE [L6E] as the variant, how does the protein stability index read?
The protein stability index was 3.96.

With FPSDHFGDLGDPFHLGLEDILMEE [L6F] as the variant, how does the protein stability index read?
The protein stability index was 3.16.

With FPSDHGGDLGDPFHLGLEDILMEE [L6G] as the variant, how does the protein stability index read?
The protein stability index was 3.64.

With FPSDHHGDLGDPFHLGLEDILMEE [L6H] as the variant, how does the protein stability index read?
The protein stability index was 3.98.

For FPSDHIGDLGDPFHLGLEDILMEE [L6I], which protein stability index is on record?
The protein stability index was 3.37.

For FPSDHKGDLGDPFHLGLEDILMEE [L6K], which protein stability index is on record?
The protein stability index was 3.22.

Which protein stability index does the source give for FPSDHMGDLGDPFHLGLEDILMEE [L6M] here?
The protein stability index was 3.71.

For FPSDHNGDLGDPFHLGLEDILMEE [L6N], which protein stability index is on record?
Its protein stability index is 3.85.

Which protein stability index does the source give for FPSDHPGDLGDPFHLGLEDILMEE [L6P] here?
Its protein stability index is 3.57.

For FPSDHQGDLGDPFHLGLEDILMEE [L6Q], which protein stability index is on record?
The protein stability index was 3.6.

For FPSDHRGDLGDPFHLGLEDILMEE [L6R], which protein stability index is on record?
The protein stability index was 2.98.

With FPSDHSGDLGDPFHLGLEDILMEE [L6S] as the variant, how does the protein stability index read?
Its protein stability index is 3.35.

Which protein stability index does the source give for FPSDHTGDLGDPFHLGLEDILMEE [L6T] here?
Its protein stability index is 3.79.

With FPSDHVGDLGDPFHLGLEDILMEE [L6V] as the variant, how does the protein stability index read?
The protein stability index was 3.81.

Which protein stability index does the source give for FPSDHWGDLGDPFHLGLEDILMEE [L6W] here?
The protein stability index was 1.75.

With FPSDHYGDLGDPFHLGLEDILMEE [L6Y] as the variant, how does the protein stability index read?
The protein stability index was 2.78.

For FPSDHLADLGDPFHLGLEDILMEE [G7A], which protein stability index is on record?
The protein stability index was 3.94.

With FPSDHLCDLGDPFHLGLEDILMEE [G7C] as the variant, how does the protein stability index read?
The protein stability index was 2.89.

With FPSDHLDDLGDPFHLGLEDILMEE [G7D] as the variant, how does the protein stability index read?
The protein stability index was 4.3.

For FPSDHLEDLGDPFHLGLEDILMEE [G7E], which protein stability index is on record?
Its protein stability index is 3.92.

For FPSDHLFDLGDPFHLGLEDILMEE [G7F], which protein stability index is on record?
Its protein stability index is 2.69.

For FPSDHLHDLGDPFHLGLEDILMEE [G7H], which protein stability index is on record?
Its protein stability index is 3.11.

With FPSDHLIDLGDPFHLGLEDILMEE [G7I] as the variant, how does the protein stability index read?
The protein stability index was 3.12.

With FPSDHLKDLGDPFHLGLEDILMEE [G7K] as the variant, how does the protein stability index read?
The protein stability index was 3.07.

With FPSDHLLDLGDPFHLGLEDILMEE [G7L] as the variant, how does the protein stability index read?
Its protein stability index is 3.41.

Which protein stability index does the source give for FPSDHLMDLGDPFHLGLEDILMEE [G7M] here?
Its protein stability index is 3.29.

Which protein stability index does the source give for FPSDHLNDLGDPFHLGLEDILMEE [G7N] here?
The protein stability index was 3.43.

With FPSDHLPDLGDPFHLGLEDILMEE [G7P] as the variant, how does the protein stability index read?
Its protein stability index is 4.3.

With FPSDHLQDLGDPFHLGLEDILMEE [G7Q] as the variant, how does the protein stability index read?
Its protein stability index is 3.67.

For FPSDHLRDLGDPFHLGLEDILMEE [G7R], which protein stability index is on record?
The protein stability index was 3.36.

Which protein stability index does the source give for FPSDHLSDLGDPFHLGLEDILMEE [G7S] here?
Its protein stability index is 3.73.

For FPSDHLTDLGDPFHLGLEDILMEE [G7T], which protein stability index is on record?
The protein stability index was 3.3.

With FPSDHLVDLGDPFHLGLEDILMEE [G7V] as the variant, how does the protein stability index read?
Its protein stability index is 3.77.

With FPSDHLWDLGDPFHLGLEDILMEE [G7W] as the variant, how does the protein stability index read?
Its protein stability index is 2.73.

With FPSDHLYDLGDPFHLGLEDILMEE [G7Y] as the variant, how does the protein stability index read?
The protein stability index was 3.22.

Which protein stability index does the source give for FPSDHLGALGDPFHLGLEDILMEE [D8A] here?
Its protein stability index is 2.96.

With FPSDHLGCLGDPFHLGLEDILMEE [D8C] as the variant, how does the protein stability index read?
The protein stability index was 2.88.

For FPSDHLGELGDPFHLGLEDILMEE [D8E], which protein stability index is on record?
The protein stability index was 3.73.

Which protein stability index does the source give for FPSDHLGFLGDPFHLGLEDILMEE [D8F] here?
Its protein stability index is 2.52.

With FPSDHLGGLGDPFHLGLEDILMEE [D8G] as the variant, how does the protein stability index read?
Its protein stability index is 3.09.

For FPSDHLGHLGDPFHLGLEDILMEE [D8H], which protein stability index is on record?
The protein stability index was 2.73.

With FPSDHLGILGDPFHLGLEDILMEE [D8I] as the variant, how does the protein stability index read?
Its protein stability index is 3.03.

Which protein stability index does the source give for FPSDHLGKLGDPFHLGLEDILMEE [D8K] here?
Its protein stability index is 2.42.

Which protein stability index does the source give for FPSDHLGLLGDPFHLGLEDILMEE [D8L] here?
The protein stability index was 2.33.

With FPSDHLGMLGDPFHLGLEDILMEE [D8M] as the variant, how does the protein stability index read?
Its protein stability index is 2.96.

Which protein stability index does the source give for FPSDHLGNLGDPFHLGLEDILMEE [D8N] here?
The protein stability index was 3.28.

Which protein stability index does the source give for FPSDHLGPLGDPFHLGLEDILMEE [D8P] here?
Its protein stability index is 3.31.

Which protein stability index does the source give for FPSDHLGQLGDPFHLGLEDILMEE [D8Q] here?
The protein stability index was 3.07.

With FPSDHLGRLGDPFHLGLEDILMEE [D8R] as the variant, how does the protein stability index read?
Its protein stability index is 2.15.

Which protein stability index does the source give for FPSDHLGSLGDPFHLGLEDILMEE [D8S] here?
The protein stability index was 3.19.

Which protein stability index does the source give for FPSDHLGTLGDPFHLGLEDILMEE [D8T] here?
Its protein stability index is 2.36.

Which protein stability index does the source give for FPSDHLGVLGDPFHLGLEDILMEE [D8V] here?
Its protein stability index is 3.1.

For FPSDHLGWLGDPFHLGLEDILMEE [D8W], which protein stability index is on record?
The protein stability index was 1.98.

With FPSDHLGYLGDPFHLGLEDILMEE [D8Y] as the variant, how does the protein stability index read?
Its protein stability index is 2.14.

Which protein stability index does the source give for FPSDHLGDAGDPFHLGLEDILMEE [L9A] here?
Its protein stability index is 3.63.

Which protein stability index does the source give for FPSDHLGDCGDPFHLGLEDILMEE [L9C] here?
The protein stability index was 3.5.

With FPSDHLGDDGDPFHLGLEDILMEE [L9D] as the variant, how does the protein stability index read?
Its protein stability index is 4.5.

Which protein stability index does the source give for FPSDHLGDEGDPFHLGLEDILMEE [L9E] here?
The protein stability index was 4.

With FPSDHLGDFGDPFHLGLEDILMEE [L9F] as the variant, how does the protein stability index read?
The protein stability index was 3.45.

For FPSDHLGDGGDPFHLGLEDILMEE [L9G], which protein stability index is on record?
Its protein stability index is 3.54.

With FPSDHLGDHGDPFHLGLEDILMEE [L9H] as the variant, how does the protein stability index read?
Its protein stability index is 3.66.

With FPSDHLGDIGDPFHLGLEDILMEE [L9I] as the variant, how does the protein stability index read?
Its protein stability index is 3.54.

With FPSDHLGDKGDPFHLGLEDILMEE [L9K] as the variant, how does the protein stability index read?
Its protein stability index is 3.94.

For FPSDHLGDMGDPFHLGLEDILMEE [L9M], which protein stability index is on record?
The protein stability index was 3.74.

With FPSDHLGDNGDPFHLGLEDILMEE [L9N] as the variant, how does the protein stability index read?
Its protein stability index is 4.32.

Which protein stability index does the source give for FPSDHLGDPGDPFHLGLEDILMEE [L9P] here?
The protein stability index was 3.42.

Which protein stability index does the source give for FPSDHLGDQGDPFHLGLEDILMEE [L9Q] here?
Its protein stability index is 3.64.

For FPSDHLGDRGDPFHLGLEDILMEE [L9R], which protein stability index is on record?
Its protein stability index is 3.66.

For FPSDHLGDSGDPFHLGLEDILMEE [L9S], which protein stability index is on record?
The protein stability index was 3.69.
